Data reported in patent publication US20210079099A1 (VESTLANDETS INNOVASJONSSELSKAP, published 2021).
One block for each binder: values may come before it.

Experiments:
Test in all cases: flow cytometry on fixed transfected C2C12 cells
[1] = molecular target: T1, human integrin alpha-2-mCherry expressed on C2C12 cells (human, UniProt P17301 30-1181)
T1 construct: whole, on cells; Transfected C2C12 cells fixed with 2% paraformaldehyde/PBS before staining; not shown: mCherry tag
T1 sequence (looked up): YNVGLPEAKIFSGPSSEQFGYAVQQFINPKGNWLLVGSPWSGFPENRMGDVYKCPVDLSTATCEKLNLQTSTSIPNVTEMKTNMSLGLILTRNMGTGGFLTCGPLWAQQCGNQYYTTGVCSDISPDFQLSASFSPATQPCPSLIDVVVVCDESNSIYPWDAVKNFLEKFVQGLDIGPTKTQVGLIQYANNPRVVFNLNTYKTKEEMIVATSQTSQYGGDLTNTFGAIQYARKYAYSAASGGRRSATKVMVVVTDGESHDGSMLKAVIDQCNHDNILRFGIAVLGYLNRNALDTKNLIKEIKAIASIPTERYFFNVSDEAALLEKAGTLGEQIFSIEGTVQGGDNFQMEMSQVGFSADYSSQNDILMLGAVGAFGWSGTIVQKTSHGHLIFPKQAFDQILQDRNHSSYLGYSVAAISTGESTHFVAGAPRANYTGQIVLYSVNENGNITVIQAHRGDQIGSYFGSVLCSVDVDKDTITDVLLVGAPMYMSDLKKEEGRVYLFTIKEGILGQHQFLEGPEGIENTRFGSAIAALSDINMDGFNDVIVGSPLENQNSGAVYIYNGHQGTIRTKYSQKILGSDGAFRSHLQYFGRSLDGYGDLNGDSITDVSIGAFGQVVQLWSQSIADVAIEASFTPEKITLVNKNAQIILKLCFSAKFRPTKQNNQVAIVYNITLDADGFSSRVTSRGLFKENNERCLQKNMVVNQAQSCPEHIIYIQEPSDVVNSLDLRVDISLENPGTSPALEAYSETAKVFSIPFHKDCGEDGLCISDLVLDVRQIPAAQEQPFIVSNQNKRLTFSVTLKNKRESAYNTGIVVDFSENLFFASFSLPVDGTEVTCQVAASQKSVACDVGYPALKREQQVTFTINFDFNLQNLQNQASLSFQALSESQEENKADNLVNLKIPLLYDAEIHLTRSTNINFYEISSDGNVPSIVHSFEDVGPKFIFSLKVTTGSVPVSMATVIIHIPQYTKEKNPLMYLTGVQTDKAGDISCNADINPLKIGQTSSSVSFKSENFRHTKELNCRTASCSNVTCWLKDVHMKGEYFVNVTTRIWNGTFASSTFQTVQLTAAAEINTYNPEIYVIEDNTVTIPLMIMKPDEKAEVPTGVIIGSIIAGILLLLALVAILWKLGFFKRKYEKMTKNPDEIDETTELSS
Method: (§1) To identify the epitope of the deposited integrin alpha-11 monoclonal antibodies. C2C12 cells were transfected with plasmids containing cDNAs encoding human integrin alpha-2-mCherry, human integrin alpha-11-EGFP, chimeric alpha-11Ialpha2mCherry or chimeric alpha-21-alpha-11EGFP as shown in FIG. 4a. Transfection was conducted as described in the art. 2% paraformaldehyde/PBS fixed transfected C2C12 cells were incubated with either antibody 203E1H5, see FIG. 4b or with antibody 234H11E8, see FIG. 4c, mouse anti-human alpha-11 IgG antibodies according to the present invention and then incubated with conjugated goat-anti mouse IgG, Alexa Fluor® 647 and analysed using a FACS Accuri measuring the dye accordingly.

[2] = molecular target: T2, chimeric human integrin alpha-2 carrying the alpha-11 I-domain, mCherry fusion, on C2C12 cells (human, UniProt P17301 30-168; Q9UKX5 161-355; P17301 367-1181)
T2 construct: also called chimeric alpha-11Ialpha2mCherry; not shown: mCherry tag
T2 sequence (looked up): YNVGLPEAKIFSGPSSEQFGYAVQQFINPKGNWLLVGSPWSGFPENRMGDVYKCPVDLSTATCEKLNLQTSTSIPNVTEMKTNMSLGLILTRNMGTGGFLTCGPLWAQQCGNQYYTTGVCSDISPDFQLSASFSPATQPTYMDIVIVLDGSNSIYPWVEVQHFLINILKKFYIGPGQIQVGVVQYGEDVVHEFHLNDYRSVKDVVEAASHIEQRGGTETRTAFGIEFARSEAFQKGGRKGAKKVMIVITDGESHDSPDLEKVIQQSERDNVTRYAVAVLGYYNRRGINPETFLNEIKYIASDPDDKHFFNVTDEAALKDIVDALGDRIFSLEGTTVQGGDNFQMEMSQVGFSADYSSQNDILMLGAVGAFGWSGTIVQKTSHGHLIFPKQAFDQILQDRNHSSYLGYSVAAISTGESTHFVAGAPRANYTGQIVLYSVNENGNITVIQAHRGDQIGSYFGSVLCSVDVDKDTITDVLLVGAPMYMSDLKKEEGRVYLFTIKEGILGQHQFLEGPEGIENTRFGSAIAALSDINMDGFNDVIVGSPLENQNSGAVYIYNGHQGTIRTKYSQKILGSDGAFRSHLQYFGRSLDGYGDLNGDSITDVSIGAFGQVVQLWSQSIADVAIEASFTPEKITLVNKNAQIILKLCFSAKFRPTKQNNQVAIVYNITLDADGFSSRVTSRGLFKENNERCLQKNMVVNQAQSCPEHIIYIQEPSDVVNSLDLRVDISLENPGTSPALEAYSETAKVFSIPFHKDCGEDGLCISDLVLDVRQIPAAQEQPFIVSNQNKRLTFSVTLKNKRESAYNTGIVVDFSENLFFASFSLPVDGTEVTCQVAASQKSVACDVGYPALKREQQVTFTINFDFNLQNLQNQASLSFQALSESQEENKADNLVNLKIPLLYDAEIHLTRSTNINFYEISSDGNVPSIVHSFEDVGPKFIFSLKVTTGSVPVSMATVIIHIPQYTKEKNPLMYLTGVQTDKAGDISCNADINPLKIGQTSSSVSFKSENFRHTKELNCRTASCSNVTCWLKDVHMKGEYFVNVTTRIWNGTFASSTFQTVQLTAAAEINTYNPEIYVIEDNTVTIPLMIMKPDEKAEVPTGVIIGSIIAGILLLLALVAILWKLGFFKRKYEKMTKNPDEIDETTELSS
Method: as §1

[3] = molecular target: T3, human integrin α11-EGFP expressed on C2C12 mouse myoblast cells (human, UniProt Q9UKX5 23-1188)
T3 construct: whole, on cells; Alpha chain fused to EGFP, expressed in mouse C2C12 cells, which express no human integrins; the beta-1 partner chain on these cells is not described; In the Western blot the cell lysate was used; also called C2C12-α11 EGFP; C2C12-hu α11-EGFP; not shown: EGFP tag
T3 sequence (looked up): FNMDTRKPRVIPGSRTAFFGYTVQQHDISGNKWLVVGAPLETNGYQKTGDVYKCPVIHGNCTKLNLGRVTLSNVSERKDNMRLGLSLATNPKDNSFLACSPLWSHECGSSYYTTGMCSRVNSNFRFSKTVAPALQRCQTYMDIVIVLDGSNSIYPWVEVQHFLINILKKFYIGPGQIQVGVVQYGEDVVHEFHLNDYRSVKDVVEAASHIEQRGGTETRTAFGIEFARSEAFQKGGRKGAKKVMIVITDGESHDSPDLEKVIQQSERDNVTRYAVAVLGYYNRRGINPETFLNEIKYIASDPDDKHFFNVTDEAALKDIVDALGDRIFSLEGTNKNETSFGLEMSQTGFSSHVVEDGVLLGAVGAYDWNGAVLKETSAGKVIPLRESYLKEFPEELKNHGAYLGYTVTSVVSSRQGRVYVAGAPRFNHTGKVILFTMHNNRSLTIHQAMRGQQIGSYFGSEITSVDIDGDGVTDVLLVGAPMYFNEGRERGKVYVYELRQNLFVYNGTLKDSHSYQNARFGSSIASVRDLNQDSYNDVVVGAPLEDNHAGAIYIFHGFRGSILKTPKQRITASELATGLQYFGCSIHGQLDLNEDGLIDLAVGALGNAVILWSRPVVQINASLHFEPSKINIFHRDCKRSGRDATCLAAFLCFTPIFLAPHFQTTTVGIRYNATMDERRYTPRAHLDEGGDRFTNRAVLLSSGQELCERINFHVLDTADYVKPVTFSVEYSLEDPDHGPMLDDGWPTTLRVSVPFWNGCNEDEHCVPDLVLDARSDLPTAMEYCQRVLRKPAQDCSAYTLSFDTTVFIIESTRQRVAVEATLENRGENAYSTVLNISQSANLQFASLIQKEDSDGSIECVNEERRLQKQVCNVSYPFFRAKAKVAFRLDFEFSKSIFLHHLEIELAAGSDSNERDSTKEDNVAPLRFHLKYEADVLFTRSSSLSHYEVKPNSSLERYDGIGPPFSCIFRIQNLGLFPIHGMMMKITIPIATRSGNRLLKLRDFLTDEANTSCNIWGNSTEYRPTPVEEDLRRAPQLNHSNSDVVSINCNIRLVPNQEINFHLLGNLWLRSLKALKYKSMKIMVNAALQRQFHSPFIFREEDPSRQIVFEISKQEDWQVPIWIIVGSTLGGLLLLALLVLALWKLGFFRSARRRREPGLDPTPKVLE
Method: as §1

binding result [1]: no binding
binding result [2]: no binding
B1: monoclonal mouse antibody 203 E1H5 produced by the hybridoma deposited as DSM ACC3318 (antibody, V domains shown)
VH: QVQLKESGPGLVAPSQSLSITCTVSGFSLTNYAVHWVRQSPGKGLEWLGVIWSYGSTDYNAAFISKLSISKDNSKSQVFFTMSSLQADDTAIYYCARSQIYGGFYDFFDFWGQGTTLTVSS
VL: CDIQMTQTPSSLSASLGDRVTIICRASQDISNFLNWFQQKPDGTIKLLIYYSSRLHSGVPSRFSGSGSGTDYSLTISNLEQEDLATYFCQQGNTLPLTFGAGTKLELT
notes: Mouse anti-human alpha-11 IgG from a hybridoma (NT-HRM mice); used as hybridoma supernatant or mAb; also called 203E1H5 mAb; α11 203E1H5 mAb

binding result [3]: binds
binding result [1]: no binding
binding result [2]: no binding
B2: monoclonal mouse antibody 234 H11E8 produced by the hybridoma deposited as DSM ACC3319 (antibody, V domains shown)
VH: QVQLKESGPGLVAPSQSLSITCTVSGFSLTNSAVHWVRQSPGKGLEWLGVVWSYGSTDYNAAFISRLSITKDNSKSQVFFKMNSLQADDTAIYYCARSQIYADYYDYFDYWGQGTTLTVSS
VL: DIQMTQSTSSLSASLGDRVTISCRASQDISNFLNWSQQKPDGTVKLLIYYTSRLHSGVPSRFSGSGSGTDYSLTISNLEQEDIGTYFCQQGNTLPLTFGAGTKLELR
notes: Mouse anti-human alpha-11 IgG from a hybridoma (NT-HRM mice); used as hybridoma supernatant or mAb; constant regions are not; also called 234H11E8 mAb; α11 234H11E8 mAb
